# Experiments:
# Conditions in all cases: label: biotin
# [1] = target: T1, CTLA4 (cytotoxic T-lymphocyte associated protein 4) (UniProt P16410 P16410:36-161); test: ELONA; 5.0 uM biotinylated aptamer on immobilised CTLA4 (5.0 ug/mL), competed with soluble protein
# Method: (§1) FIGS. 3A, 3B, and 3C show the assessment of competitive specificity of CTLA4 aptamers, R2-13, R2-25, R2-63, R2-81, R3-20, and R3-56 to CTLA4 protein in presence of CTLA4, NKG2A, and PD-1 proteins. ELISA-based competition assay for the specificity of the binding of CTLA4 aptamers, R2-13, R2-25, R2-63, R2-81, R3-20, and R3-56. CTLA4 protein (5.0 ug/mL) was immobilized on a MaxiSorp plate. Biotinylated CTLA4 aptamers on 5.0 uM concentration were added in the presence of different concentrations of CTLA4, PD-1, or NKG2A proteins, respectively. The bound aptamer was detected using Streptavidin-HRP and assessed by ELISA. The absorbance of each well was monitored at 450 nm on an automatic microplate reader. The percent inhibition was calculated using the formula, Percent inhibition=[1−(Ainhibitor/Auninhibitor)]×100.
# NKG2A [2] = target: T2, NKG2A (UniProt P26715 P26715:94-233); test: competition; NKG2A as soluble competitor for aptamer binding to immobilised CTLA4
# Method: as §1
# PD-1 [3] = target: T3, PD-1 (UniProt Q15116 Q15116:25-170); test: competition; PD-1 as soluble competitor
# Method: as §1
# [4] = target: Bovine serum albumin (BSA) (Bos taurus, UniProt P02769 P02769:25-607); test: ELONA; BSA-coated plate
# PD-1 [5] = target: T3, PD-1; test: competition; PD-1 as soluble competitor for aptamer binding to immobilised CTLA4
# Method: as §1
# NKG2A [6] = target: T2, NKG2A; test: ELONA; direct and competitive ELISA; 100-fold excess unlabelled aptamer as competitor
# Method: FIGS. 2A and 2B show aptamer, R2-13, specific binding to CTLA4 and NKG2A is determined by Direct and Competitive ELISA assay. ELISA-based competition assay for the binding of the CTLA4 aptamer, R2-13, to CTLA4 protein and to NKG2A protein. CTLA4 protein and NKG2A protein were immobilized on a MaxiSorp plate and biotinylated R2-13 on different concentrations were added in the absence and presence of 100-fold excess of non-biotinylated respective R2-13. The bound aptamer was detected using Streptavidin-HRP and assessed by ELISA. CTLA4 protein was immobilized on a MaxiSorp plate and biotinylated R2-13 on different concentrations were added in the absence and presence of 100-fold excess of non-biotinylated respective R2-13. The bound aptamer was assessed by ELISA.
# [7] = target: T1, CTLA4 (cytotoxic T-lymphocyte …); test: as above
# [8] = target: T1, CTLA4 (cytotoxic T-lymphocyte …); test: ELONA; called R2-25 in figure legend; 5.0 uM biotinylated aptamer on immobilised CTLA4, competed with soluble protein
# Method: as §1
# PD-1 [9] = target: T3, PD-1; test: competition; PD-1 as soluble competitor; called R2-25 in figure legend
# Method: as §1
# T1 sequence (P16410 36-161, one chain of several): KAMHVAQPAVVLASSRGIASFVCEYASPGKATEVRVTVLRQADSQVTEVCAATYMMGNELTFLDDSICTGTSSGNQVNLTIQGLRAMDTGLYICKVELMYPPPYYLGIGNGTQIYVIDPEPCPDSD
# T2 sequence (P26715 94-233, one chain of several): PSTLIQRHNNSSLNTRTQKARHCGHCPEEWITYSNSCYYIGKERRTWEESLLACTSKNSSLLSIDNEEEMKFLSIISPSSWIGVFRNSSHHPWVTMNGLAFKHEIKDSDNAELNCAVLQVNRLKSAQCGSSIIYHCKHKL
# T3 sequence (Q15116 25-170, one chain of several): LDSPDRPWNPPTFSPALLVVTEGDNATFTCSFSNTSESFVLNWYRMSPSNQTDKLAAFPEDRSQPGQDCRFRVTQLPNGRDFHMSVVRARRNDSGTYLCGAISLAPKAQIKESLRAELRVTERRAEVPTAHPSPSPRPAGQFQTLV
# Chain of Bovine serum albumin (BSA) (P02769 25-607, one chain of several): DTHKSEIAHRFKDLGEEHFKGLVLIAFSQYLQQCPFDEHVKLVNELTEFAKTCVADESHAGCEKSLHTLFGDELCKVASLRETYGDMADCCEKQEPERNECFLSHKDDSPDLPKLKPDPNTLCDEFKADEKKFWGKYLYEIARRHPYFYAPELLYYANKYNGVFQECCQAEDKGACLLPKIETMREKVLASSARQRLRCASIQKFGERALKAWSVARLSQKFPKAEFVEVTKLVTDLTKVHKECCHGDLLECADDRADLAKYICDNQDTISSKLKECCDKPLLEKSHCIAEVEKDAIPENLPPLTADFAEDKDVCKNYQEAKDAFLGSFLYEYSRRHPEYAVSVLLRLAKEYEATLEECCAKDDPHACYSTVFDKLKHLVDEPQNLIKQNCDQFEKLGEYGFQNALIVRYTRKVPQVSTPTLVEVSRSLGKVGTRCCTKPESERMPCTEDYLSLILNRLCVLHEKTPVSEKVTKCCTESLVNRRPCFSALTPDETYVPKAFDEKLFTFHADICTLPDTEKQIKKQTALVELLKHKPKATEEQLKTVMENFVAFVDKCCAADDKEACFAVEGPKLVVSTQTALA
Binder,binding result [1],binding result (NKG2A [2]),binding result (PD-1 [3]),binding result [4],binding result (PD-1 [5]),binding result (NKG2A [6]),binding result [7],binding result [8],binding result (PD-1 [9])
"GACCTGCCGGCGGAGCTGCGTCCCGCTGCACCGGCAGGTC (ssDNA, deoxyuridine (dU) in place of every T) [ctla4_R3_20]",binds,binds,no binding,,,,,,
"TTGTTGCAGGCGACGTGCGTGGGCGCACGGCCTGCAACAA (ssDNA, deoxyuridine (dU) in place of every T) [ctla4_R3_56]",binds,binds,no binding,,,,,,
"ACTTACAACTGCGCACGCGGGACCTCCGAGAGTTGTAAGT (ssDNA, deoxyuridine (dU) in place of every T) [ctla4_R2_81]",binds,binds,no binding,,,,,,
"ACACTTTTCCCCCACCTGATCCTCAGTTCCGGAAAAGTGT (ssDNA, deoxyuridine (dU) in place of every T) [ctla4_R2_13]",,,,no binding,no binding,binds,binds,,
"GACTTCGCGGAGGTAAACTGCACGGGGGTGCCGCGAAGTC (ssDNA, deoxyuridine (dU) in place of every T) [ctla4_R3_25]",,binds,,,,,,binds,no binding
